Source: patent publication US20090031441A1 (NATIONAL UNIVERSITY CORPORATION NAGOYA UNIVERSITY, published 2009)
One block for each binder: values may come before it.

How the values were obtained:
Test in all cases: yeast two-hybrid, AtGID1 bait and AtDELLA prey, 10^-5 M GA4 in medium; colony growth (Assay A) and beta-galactosidase activity (Assay B)
[1] = target: T1, RGA (Arabidopsis DELLA protein), yeast two-hybrid prey in pGADT7 AD vector (Arabidopsis, UniProt Q9SLH3 1-587)
T1 construct: also called AtDELLA
T1 sequence (looked up): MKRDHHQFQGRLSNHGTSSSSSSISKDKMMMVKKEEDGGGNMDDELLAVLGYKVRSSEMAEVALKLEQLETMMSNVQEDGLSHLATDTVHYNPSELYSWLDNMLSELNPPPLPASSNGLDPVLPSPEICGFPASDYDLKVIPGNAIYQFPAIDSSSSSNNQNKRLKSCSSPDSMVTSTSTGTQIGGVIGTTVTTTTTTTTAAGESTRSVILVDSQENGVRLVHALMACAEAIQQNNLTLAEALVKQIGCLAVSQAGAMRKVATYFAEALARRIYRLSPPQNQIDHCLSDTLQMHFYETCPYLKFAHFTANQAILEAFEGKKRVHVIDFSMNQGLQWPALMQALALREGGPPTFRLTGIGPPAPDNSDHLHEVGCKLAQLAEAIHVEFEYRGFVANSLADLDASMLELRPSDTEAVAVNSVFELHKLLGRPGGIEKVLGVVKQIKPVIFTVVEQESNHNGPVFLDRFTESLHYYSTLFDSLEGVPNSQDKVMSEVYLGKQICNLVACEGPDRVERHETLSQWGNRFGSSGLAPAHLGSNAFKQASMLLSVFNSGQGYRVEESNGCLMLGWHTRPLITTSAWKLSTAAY
Procedure: (§1) Panel A) depicts AtGID1-AtDELLA interaction in the presence of GA in two types of yeast hybrid (Y2H) assays. Each AtGID1 was used as a bait while AtDELLA was a prey. GA₄ (10⁻⁵ M) was added to the medium. The bars indicates β-galactosidase activity when o-nitrophenol-β-D-galactopyranoside was used as a substrate (Assay B). The growth of each transformant in the defined medium for 2 days (Assay A) is shown beneath of each bar graph. The experiment was carried out in quadruplicate. The SD value shown in the figure was determined from three measurements. Panel B) depicts the dose response in AtGID1-RGA interaction in Assay B of Y2H. GA₄ (10⁻⁵ to 10⁻⁹ M) was added to the medium. The experiment was conducted in duplicates. The SD value shown in the figure was determined from three measurements. Panel C) depicts the results of an evaluation of the in vitro GA-binding potency of AtGID1 using AtDELLA. Left panel, 15 minutes after mixing AtGID1c (C), tritiated GA, with an excess amount of non-labeled GA (+) or without non-labeled GA (−). GAI (G) or RGA (R) was added, and then the GA-binding activity in each reaction mixture was measured according to the standard method. Recombinant protein originating from the vector (v) was used as a negative control. The experiment was carried out in duplicates. The SD value was determined from three measurements. Right panel, a profile of Western blotting for recombinant AtDELLA using an antibody to His tag. G, GAI; R, RGA; v, vector; M, molecular weight marker.
(§2) Arabidopsis has five DELLA proteins (RGA, GAI, RGL1, RGL2, and RGL3; collectively designated AtDELLA; Fleet, C. M., and Sun, T.-P. (2005) Curr. Opin. Plant Biol., 8, 77-85; Dill, A., and Sun, T. (2001) Genetics, 159, 777-785); therefore, there are 15 possible combinations of GID1/DELLA proteins. To verify the positive interactions between AtGID1-AtDELLA, two experiments were conducted using the yeast two hybrid (Y2H) system. […] In the second experiment (Assay B), β-galactosidase activity was measured, as reporter gene product of AtGID1-AtDELLA interactions. […]

[2] = target: T2, GAI (Arabidopsis DELLA protein), yeast two-hybrid prey in pGADT7 AD vector (Arabidopsis, UniProt Q9LQT8 1-533)
T2 construct: also called AtDELLA
T2 sequence (looked up): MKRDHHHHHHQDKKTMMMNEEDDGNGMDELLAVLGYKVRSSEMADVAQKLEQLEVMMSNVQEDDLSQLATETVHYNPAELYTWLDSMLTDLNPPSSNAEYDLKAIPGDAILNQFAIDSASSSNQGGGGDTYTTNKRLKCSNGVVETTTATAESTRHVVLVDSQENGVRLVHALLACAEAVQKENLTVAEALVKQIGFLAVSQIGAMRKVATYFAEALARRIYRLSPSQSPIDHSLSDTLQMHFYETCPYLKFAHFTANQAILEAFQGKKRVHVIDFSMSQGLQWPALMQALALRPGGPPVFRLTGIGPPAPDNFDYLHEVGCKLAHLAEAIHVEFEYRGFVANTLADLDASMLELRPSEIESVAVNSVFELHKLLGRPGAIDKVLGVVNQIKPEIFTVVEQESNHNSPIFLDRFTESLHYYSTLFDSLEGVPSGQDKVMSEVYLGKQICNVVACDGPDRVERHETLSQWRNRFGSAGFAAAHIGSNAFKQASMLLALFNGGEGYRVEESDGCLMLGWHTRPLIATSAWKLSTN
Procedure: as §1, §2

[3] = target: T3, RGL3 (Arabidopsis DELLA protein), yeast two-hybrid prey in pGADT7 AD vector (Arabidopsis, UniProt Q9LF53 1-523)
T3 construct: also called AtDELLA
T3 sequence (looked up): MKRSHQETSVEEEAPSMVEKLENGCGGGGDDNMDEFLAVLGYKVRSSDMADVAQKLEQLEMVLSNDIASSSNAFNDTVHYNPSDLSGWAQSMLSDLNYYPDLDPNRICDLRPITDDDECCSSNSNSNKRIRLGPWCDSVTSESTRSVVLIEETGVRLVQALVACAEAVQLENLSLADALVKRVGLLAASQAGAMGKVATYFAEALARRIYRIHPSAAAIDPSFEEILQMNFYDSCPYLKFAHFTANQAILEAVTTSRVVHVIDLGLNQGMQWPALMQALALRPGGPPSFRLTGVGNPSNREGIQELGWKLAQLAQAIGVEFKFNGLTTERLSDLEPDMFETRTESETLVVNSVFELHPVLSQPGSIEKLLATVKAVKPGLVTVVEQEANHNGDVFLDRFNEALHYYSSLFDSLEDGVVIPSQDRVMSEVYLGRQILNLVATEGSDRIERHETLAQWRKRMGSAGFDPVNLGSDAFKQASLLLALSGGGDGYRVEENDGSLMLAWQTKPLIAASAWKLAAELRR
Procedure: as §1, §2

binding result [1]: binds | binding result [2]: binds
B1: AtGID1a (At3g05120), yeast two-hybrid bait in pGBKT7 DNA-BD vector (receptor, not shown: small tags and cut ends)
chain: MAASDEVNLIESRTVVPLNTWVLISNFKVAYNILRRPDGTFNRHLAEYLDRKVTANANPVDGVFSFDVLIDRRINLLSRVYRPAYADQEQPPSILDLEKPVDGDIVPVILFFHGGSFAHSSANSAIYDTLCRRLVGLCKCVVVSVNYRRAPENPYPCAYDDGWIALNWVNSRSWLKSKKDSKVHIFLAGDSSGGNIAHNVALRAGESGIDVLGNILLNPMFGGNERTESEKSLDGKYFVTVRDRDWYWKAFLPEGEDREHPACNPFSPRGKSLEGVSFPKSLVVVAGLDLIRDWQLAYAEGLKKAGQEVKLMHLEKATVGFYLLPNNNHFHNVMDEISAFVNAEC
notes: Bait fusion for the Y2H assays (BD Matchmaker Two-hybrid System 3); also called Arabidopsis GID1

binding result [3]: binds
B2: AtGID1b (At3g63010), yeast two-hybrid bait in pGBKT7 DNA-BD vector (receptor, not shown: small tags and cut ends)
chain: MAGGNEVNLNECKRIVPLNTWVLISNFKLAYKVLRRPDGSFNRDLAEFLDRKVPANSFPLDGVFSFDHVDSTTNLLTRIYQPASLLHQTRHGTLELTKPLSTTEIVPVLIFFHGGSFTHSSANSAIYDTFCRRLVTICGVVVVSVDYRRSPEHRYPCAYDDGWNALNWVKSRVWLQSGKDSNVYVYLAGDSSGGNIAHNVAVRATNEGVKVLGNILLHPMFGGQERTQSEKTLDGKYFVTIQDRDWYWRAYLPEGEDRDHPACNPFGPRGQSLKGVNFPKSLVVVAGLDLVQDWQLAYVDGLKKTGLEVNLLYLKQATIGFYFLPNNDHFHCLMEELNKFVHSIEDSQSKSSPVLLTP
notes: Bait fusion for the Y2H assays; also called Arabidopsis GID1
